15 molecules from patent US11278600B2, “Human alpha-galactosidase variants” (Codexis, Inc., priority 2014, dated 2022) can be followed below.

Changes are numbered by the printed parent chain.

B1: 214 (protein)
chain: LDNGLARTPTMGWLHWERFMCNLDCQEEPDSCISEKLFMEMAELMVSEGWKDAGYEYLCIDDCWMAPQRDSEGRLQADPQRFPHGIRQLANYVHSKGLKLGIYADVGNKTCAGFPGSFGYYDIDAQTFADWGVDLLKFDGCYCDSLENLADGYKHMSLALNRTGRSIVYSCEWPLYMWPFQKPNYTEIRQYCNHWRNFADIDDSWASIKSILDWTSFNQERIVDVAGPGGWNDPDMLVIGNFGLSWNQQVTQMALWAIMAAPLFMSNDLRHISPQAKALLQDKDVIAINQDPLGKQGYQLRQGDNFEVWERPLSGLAWAVAMINRQEIGGPRSYTIAVASLGDGVACNPACFITQLLPVKRKLGLYNWTSRLRSHINPTGTVLLQLENTMQMSKDLLL
modifications: Synthetic Polypeptide sequence of Variant No. 214 of mature Human GLA
B2: 228 (protein)
chain: B1 chain with D343K, L365F, N367E, R373K
modifications: Synthetic Polypeptide sequence of Variant No. 228 of mature Human GLA
B3: 225 (protein)
chain: B1 chain with R165S, D343K, L365F, N367E, T389S
modifications: Synthetic Polypeptide sequence of Variant No. 182 of mature Human GLA
B4: 224 (protein)
chain: B1 chain with Q302K, M322V, D343K, L365F
modifications: Synthetic Polypeptide sequence of Variant No. 224 of mature Human GLA
B5: 221 (protein)
chain: B1 chain with D343K, L365F, N367E, M390I
modifications: Synthetic Polypeptide sequence of Variant No. 221 of mature Human GLA
B6: 216 (protein)
chain: B1 chain with D343G, R373K
modifications: Synthetic Polypeptide sequence of Variant No. 216 of mature Human GLA
B7: 223 (protein)
chain: B1 chain with Q302K, A337P, D343K, A350G, K362Q, L365F, N367E
modifications: Synthetic Polypeptide sequence of Variant No. 223 of mature Human GLA
B8: 226 (protein)
chain: B1 chain with R221T, D343K, N367E
modifications: Synthetic Polypeptide sequence of Variant No. 226 of mature Human GLA
B9: 220 (protein)
chain: B1 chain with M322V, D343K, L365F, N367E, R373K, I376V
modifications: Synthetic Polypeptide sequence of Variant No. 220 of mature Human GLA
B10: 218 (protein)
chain: B1 chain with M322I, D343K, L365F, R373K, K394L, D395K, L396D
modifications: Synthetic Polypeptide sequence of Variant No. 218
B11: 215 (protein)
chain: B1 chain with D343G, L365F, N367E
modifications: Synthetic Polypeptide sequence of Variant No. 215 of mature Human GLA
B12: 219 (protein)
chain: B1 chain with M322I, D343K, L365F, N367E, R373K
modifications: Synthetic Polypeptide sequence of Variant No. 219 of mature Human GLA
B13: 222 (protein)
chain: B1 chain with P228Q, D343K, L365F, N367E, T369D
modifications: Synthetic Polypeptide sequence of Variant No. 222 of mature Human GLA
B14: 227 (protein)
chain: B1 chain with R325H, D343K, L365F, N367E
modifications: Synthetic Polypeptide sequence of Variant No. 227 of mature Human GLA
B15: 229 (protein)
chain: B1 chain with D343K, L365F, N367E, R373K, I376V
modifications: Synthetic Polypeptide sequence of Variant No. 229 of mature Human GLA

The first data set in a line: HTP-analysis of yeast culture supernatants, no challenge (MUGal hydrolysis). It counts as biochemical. The note with it: activity of the variant/activity of Rd2BB (SEQ ID NO: 10), yeast supernatant. In short, it runs like this:
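GLA variants were expressed in INVSc1 yeast grown in SD-Ura broth with glucose at 30° C., and culture supernatants were collected after 66-84 h. Supernatant was mixed with McIlvaine buffer pH 4.8 and MUGal (2 mM stock) in 50 mM citrate, 200 mM KCl, pH 4.6, incubated at 37° C. for 30-180 minutes, then quenched with sodium carbonate.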
Turning to B1, the “Relative Activity of GLA Variants After No Challenge (NC)” value is on record as “+++ (+++ = >2.5 relative activity over Rd2BB (SEQ ID NO: 10))”.
On the same count and under the same terms, under B2 stands “+ (+ = 0.5 to 1.5 relative activity over Rd2BB (SEQ ID NO: 10))”.
Same read-out and setting: in the case of B3 it was “+ (+ = 0.5 to 1.5 relative activity over Rd2BB (SEQ ID NO: 10))”; in that of B4, “++ (++ = 1.5 to 2.5 relative activity over Rd2BB (SEQ ID NO: 10))”.
On to B5, for which the “Relative Activity of GLA Variants After No Challenge (NC)” value was “+ (+ = 0.5 to 1.5 relative activity over Rd2BB (SEQ ID NO: 10))”.
As to B6, the “Relative Activity of GLA Variants After No Challenge (NC)” value is given as “++ (++ = 1.5 to 2.5 relative activity over Rd2BB (SEQ ID NO: 10))”.
The same measure, in the same setting: in the case of B7 it was “+ (+ = 0.5 to 1.5 relative activity over Rd2BB (SEQ ID NO: 10))”; in that of B8, “+ (+ = 0.5 to 1.5 relative activity over Rd2BB (SEQ ID NO: 10))”; in that of B9, “+ (+ = 0.5 to 1.5 relative activity over Rd2BB (SEQ ID NO: 10))”.
Same read-out and setting: in the case of B10 it was “+++ (+++ = >2.5 relative activity over Rd2BB (SEQ ID NO: 10))”; in that of B11, “+ (+ = 0.5 to 1.5 relative activity over Rd2BB (SEQ ID NO: 10))”; in that of B12, “+ (+ = 0.5 to 1.5 relative activity over Rd2BB (SEQ ID NO: 10))”.
Same read-out and setting: under B13 stands “++ (++ = 1.5 to 2.5 relative activity over Rd2BB (SEQ ID NO: 10))”; under B14, “− (− = <0.5 relative activity over Rd2BB (SEQ ID NO: 10))”.
Consider B15, for which the “Relative Activity of GLA Variants After No Challenge (NC)” value is “+ (+ = 0.5 to 1.5 relative activity over Rd2BB (SEQ ID NO: 10))”.

A short description of the next data set: HTP-analysis of supernatants pretreated with acid (MUGal hydrolysis). It counts as biochemical. The note with it: challenge at pH 4.2; activity of the variant/activity of Rd2BB (SEQ ID NO: 10); yeast supernatant. An outline of the steps:
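Supernatants from INVSc1 yeast secreting GLA variants were challenged at 37° C. for 1-3 h in McIlvaine buffer at pH 3.3-4.3. Residual activity was then measured on 4 mM MUGal substrate stock at pH 4.8 with citrate buffer pH 4.3, over 30-180 min at 37° C. Reactions were quenched with sodium carbonate and read by fluorescence (Ex 355/Em 448 nm).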
Consider B1, for which the “Relative Activity of GLA Variants After Challenge at pH 4.2” value (from here on “Relative Activity … at pH 4.2”) was “+++ (+++ = >2.5 relative activity over Rd2BB (SEQ ID NO: 10))”.
On to B2, for which the “Relative Activity … at pH 4.2” value was “+ (+ = 0.5 to 1.5 relative activity over Rd2BB (SEQ ID NO: 10))”.
Regarding B3, the “Relative Activity … at pH 4.2” value was “+ (+ = 0.5 to 1.5 relative activity over Rd2BB (SEQ ID NO: 10))”.
Same read-out and setting: in the case of B4 it was “+++ (+++ = >2.5 relative activity over Rd2BB (SEQ ID NO: 10))”.
Regarding B5, the “Relative Activity … at pH 4.2” value is on record as “+ (+ = 0.5 to 1.5 relative activity over Rd2BB (SEQ ID NO: 10))”.
Take B6: the “Relative Activity … at pH 4.2” value is “+++ (+++ = >2.5 relative activity over Rd2BB (SEQ ID NO: 10))”.
Still for that read-out and setting: in the case of B7 it was “++ (++ = 1.5 to 2.5 relative activity over Rd2BB (SEQ ID NO: 10))”.
Same read-out and setting: under B8 stands “+ (+ = 0.5 to 1.5 relative activity over Rd2BB (SEQ ID NO: 10))”.
Regarding B9, the “Relative Activity … at pH 4.2” value is recorded as “+ (+ = 0.5 to 1.5 relative activity over Rd2BB (SEQ ID NO: 10))”.
Same read-out and setting: in the case of B10 it was “+++ (+++ = >2.5 relative activity over Rd2BB (SEQ ID NO: 10))”; in that of B11, “+ (+ = 0.5 to 1.5 relative activity over Rd2BB (SEQ ID NO: 10))”; in that of B12, “+ (+ = 0.5 to 1.5 relative activity over Rd2BB (SEQ ID NO: 10))”.
Same read-out and setting: under B13 stands “++ (++ = 1.5 to 2.5 relative activity over Rd2BB (SEQ ID NO: 10))”; under B14, “− (− = <0.5 relative activity over Rd2BB (SEQ ID NO: 10))”; under B15, “− (− = <0.5 relative activity over Rd2BB (SEQ ID NO: 10))”.

A short description of the next data set: HTP-analysis of supernatants pretreated with base (MUGal hydrolysis). It counts as biochemical. The note with it: challenge at pH 7.6; activity of the variant/activity of Rd2BB (SEQ ID NO: 10); yeast supernatant. In short, it runs like this: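 GLA variants secreted from yeast INVSc1; culture supernatants pre-incubated with McIlvaine buffer pH 7.0–8.2 or 200 mM bicarbonate pH 9.1–9.7 at 37° C. for 1–18 h. Residual activity: MUGal (4 mM stock) hydrolysis at pH 4.3–4.8, 37° C., 30–180 min, carbonate quench; fluorescence Ex 355/Em 448 nm.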
Take B1: the “Relative Activity of GLA Variants After Challenge at pH 7.6” value (“Relative Activity … at pH 7.6” for short) was “+++ (+++ = >2.5 relative activity over Rd2BB (SEQ ID NO: 10))”.
The same measure, in the same setting: in the case of B2 it was “+ (+ = 0.5 to 1.5 relative activity over Rd2BB (SEQ ID NO: 10))”; in that of B3, “+ (+ = 0.5 to 1.5 relative activity over Rd2BB (SEQ ID NO: 10))”.
Same read-out and setting: in the case of B4 it was “+++ (+++ = >2.5 relative activity over Rd2BB (SEQ ID NO: 10))”.
Same read-out and setting: in the case of B5 it was “+ (+ = 0.5 to 1.5 relative activity over Rd2BB (SEQ ID NO: 10))”.
For B6, the “Relative Activity … at pH 7.6” value is recorded as “+++ (+++ = >2.5 relative activity over Rd2BB (SEQ ID NO: 10))”.
The same measure, in the same setting: under B7 stands “++ (++ = 1.5 to 2.5 relative activity over Rd2BB (SEQ ID NO: 10))”.
For the molecule B8, the “Relative Activity … at pH 7.6” value was “++ (++ = 1.5 to 2.5 relative activity over Rd2BB (SEQ ID NO: 10))”.
On to B9, for which the “Relative Activity … at pH 7.6” value was “++ (++ = 1.5 to 2.5 relative activity over Rd2BB (SEQ ID NO: 10))”.
As to B10, the “Relative Activity … at pH 7.6” value is on record as “+++ (+++ = >2.5 relative activity over Rd2BB (SEQ ID NO: 10))”.
As for B11, the “Relative Activity … at pH 7.6” value is given as “+ (+ = 0.5 to 1.5 relative activity over Rd2BB (SEQ ID NO: 10))”.
Same read-out and setting: in the case of B12 it was “+ (+ = 0.5 to 1.5 relative activity over Rd2BB (SEQ ID NO: 10))”; in that of B13, “+ (+ = 0.5 to 1.5 relative activity over Rd2BB (SEQ ID NO: 10))”; in that of B14, “− (− = <0.5 relative activity over Rd2BB (SEQ ID NO: 10))”.
With B15, the “Relative Activity … at pH 7.6” value was “+ (+ = 0.5 to 1.5 relative activity over Rd2BB (SEQ ID NO: 10))”.
